Results on eight molecules are retold here after patent publication US20220177548A1 (WISTAR INSTITUTE OF ANATOMY AND BIOLOGY, published 2022).

In the experiment the target is HLA-A2 (on T2 cells) (human). The experiment is described as follows: T2 cell binding assay, fluorescence index by flow cytometry. In general terms: In flow cytometry, cells or beads pass a laser one at a time.
With LLTEKSRWSG (Synthetic 10-mer) [Modified 3 (modified BRAFV600E peptide LLTEKSRWSG)], the “T2 Binding (FI)” value is 0.9 FI = (MFI peptide/MFI w/o peptide) - 1.

Regarding LATEKSRWSG (Synthetic 10-mer) [Unmodified 2 (human BRAFV600E peptide LATEKSRWSG, amino acids 597-606 of BRAFV600E)], the “T2 Binding (FI)” value was 1.1 FI = (MFI peptide/MFI w/o peptide) - 1.

For LATEKSRWSI (Synthetic 10-mer) [Modified 5 (modified BRAFV600E peptide LATEKSRWSI)], the “T2 Binding (FI)” value is 0.7 FI = (MFI peptide/MFI w/o peptide) - 1.

For LATEKSRWSL (Synthetic 10-mer) [Modified 6 (modified BRAFV600E peptide LATEKSRWSL)], the “T2 Binding (FI)” value was 0.6 FI = (MFI peptide/MFI w/o peptide) - 1.

Regarding LMTEKSRWSG (Synthetic 10-mer) [Modified 2 (modified BRAFV600E peptide LMTEKSRWSG)], the “T2 Binding (FI)” value is 0.8 FI = (MFI peptide/MFI w/o peptide) - 1.

As to LATEKSRWSV (Synthetic 10-mer) [Modified 7 (modified BRAFV600E peptide LATEKSRWSV)], the “T2 Binding (FI)” value was 1 FI = (MFI peptide/MFI w/o peptide) - 1.

For the molecule LITEKSRWSG (Synthetic 10-mer) [Modified 1 (modified BRAFV600E peptide LITEKSRWSG)], the “T2 Binding (FI)” value is 1 FI = (MFI peptide/MFI w/o peptide) - 1.

Turning to LLTEKSRWSV (Synthetic 10-mer) [Modified 4 (modified BRAFV600E peptide LLTEKSRWSV)], the “T2 Binding (FI)” value was 6.5 FI = (MFI peptide/MFI w/o peptide) - 1.
